± gives the standard deviation of the averaged measurements.
The sequences below were run on Saccharomyces cerevisiae (assay: protein stability index of tFT-peptide fusion (C-terminal peptide) (PSI (0-1 scale)); higher = more stable (slower turnover)). Details: genetic background: wild type; temperature: 30 C.
Protocol: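 MPS profiling in S. cerevisiae of the tFT-X12 degron library: putative degron peptides plus stable controls, 12 aa, fused to the C-terminus of a sfGFP-mCherry timer. Cells are FACS-sorted into 8 mCherry/sfGFP bins and deep-sequenced. PSI runs from 0 (unstable) to 1 (stable). Backgrounds are wild type, das1Δ and doa10Δ at 30 °C, and wild type, das1Δ, cdc34-1 and cdc53-1 at 37 °C; 2-3 technical replicates each.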
AFRRFLLYCRFI gave a protein stability index of 0.148 ± 0.025. Work on AIPRWLALLVAH yielded a protein stability index of 0.159 ± 0.022. Work on ALWRAWLRLRIW yielded a protein stability index of 0.124 ± 0.0037. Sequence AQLVYVITAVRT has a protein stability index of 0.315 ± 0.019. With ARLTNYFVEWLS the protein stability index was 0.383 ± 0.029. Sequence ASAYCCMITRLN has a protein stability index of 0.0882 ± 0.026. Sequence ASGVFSRLVLVS has a protein stability index of 0.201 ± 0.024. In the case of ASPLRLFIPFLF, the protein stability index is reported as 0.211 ± 0.026. AWLWCVCWSIMR gave a protein stability index of 0.323 ± 0.021. AYFPSQRVHHLM was tested, and the protein stability index was 0.174 ± 0.033. For CACAVPFLLLFF, the protein stability index was 0.347 ± 0.032. Sequence CCSRYLSNLCPI has a protein stability index of 0.648 ± 0.0072. Work on CDSRIRKIWSYL yielded a protein stability index of 0.284 ± 0.039. For CFFPLFLCTAFC, the protein stability index was 0.39 ± 0.0053. CFSVFSVLCFFV gave a protein stability index of 0.414 ± 0.019. In the case of CFVFYALFGFAV, the protein stability index is reported as 0.285 ± 0.017. Work on CLISILLFLCFT yielded a protein stability index of 0.39 ± 0.021. CLLVCCCFYRNV gave a protein stability index of 0.399 ± 0.025. Work on CLVKIVIFFLFS yielded a protein stability index of 0.211 ± 0.024. CNIYVLIIIKKY showed a protein stability index of 0.164 ± 0.039. Sequence CPPPCPLYMLLC has a protein stability index of 0.17 ± 0.024. CRLLYYIPCGLF gave a protein stability index of 0.403 ± 0.014. Sequence CRRLCGWLFVCV has a protein stability index of 0.38 ± 0.025. CSFELSVCLMLR was tested, and the protein stability index was 0.107 ± 0.007. CSLRLCVRGAIV gave a protein stability index of 0.606 ± 0.0057. In the case of CSSSNRRRYFVL, the protein stability index is reported as 0.131 ± 0.037. For CVARWPRPAGSS, the protein stability index was 0.673 ± 0.035. Sequence CVFFPFLGVCYV has a protein stability index of 0.336 ± 0.019. Work on CVGRPIALAVRT yielded a protein stability index of 0.38 ± 0.028. With CVLLRPGFLVLV the protein stability index was 0.166 ± 0.014. With CVYGILLLVDVR the protein stability index was 0.0971 ± 0.018. In the case of CWDNTLKTMRQM, the protein stability index is reported as 0.333 ± 0.018. Sequence CWLFCACFVRLV has a protein stability index of 0.0636 ± 0.0022. Work on CYFLFFLSYSLE yielded a protein stability index of 0.226 ± 0.029. Sequence CYTGYMYKLLVG has a protein stability index of 0.243 ± 0.027. Sequence DFHLPWPVALVW has a protein stability index of 0.208 ± 0.026. DFIVVIRFIQII gave a protein stability index of 0.154 ± 0.027. In the case of DFVYFPPIPVSS, the protein stability index is reported as 0.266 ± 0.032. For DISWVFVLLIFF, the protein stability index was 0.279 ± 0.039. DMWYLLWRVCYI showed a protein stability index of 0.409 ± 0.026. EGALSGGGKTSG was tested, and the protein stability index was 0.631 ± 0.012. With EKIIVAVLFVVP the protein stability index was 0.302 ± 0.02. For ENKGGNQKRRKK, the protein stability index was 0.635 ± 0.021. With EQMRRYILVSYV the protein stability index was 0.243 ± 0.02. ERFRLYFRPGIF was tested, and the protein stability index was 0.332 ± 0.015. In the case of ESCWVSRVGVCR, the protein stability index is reported as 0.608 ± 0.01. With EVTRMLRVVREI the protein stability index was 0.38 ± 0.032. For EWLITLRKCGVA, the protein stability index was 0.423 ± 0.027. Sequence EWRPYKRNKQSS has a protein stability index of 0.211 ± 0.028. In the case of EWVGIFRGVSVF, the protein stability index is reported as 0.267 ± 0.022. FAKRVARVAREH was tested, and the protein stability index was 0.219 ± 0.0058. For FALFLFFGPLIV, the protein stability index was 0.331 ± 0.011. FASFLFFCYIIF showed a protein stability index of 0.154 ± 0.04. Sequence FCCFFPFLWRVF has a protein stability index of 0.322 ± 0.016. For FCFYLLFLGFTR, the protein stability index was 0.324 ± 0.018. For FCLFFFPSLFFF, the protein stability index was 0.295 ± 0.026. For FCRLCYLLLFCC, the protein stability index was 0.196 ± 0.016. In the case of FELVWLCIIGAL, the protein stability index is reported as 0.122 ± 0.019. In the case of FFCFFWLFHWFG, the protein stability index is reported as 0.451 ± 0.015. In the case of FFCSLIISRFLL, the protein stability index is reported as 0.168 ± 0.033.

— the supplement of paper PMC10724198
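Note: PSI is a weighted mean of sequencing reads over stability bins, variants kept only with over 10 reads, mCherry proximal and sfGFP distal, peptide attached via GGGS linker.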
